Here are results for eight molecules from US20030049625, “Rapid and sensitive proximity-based assay for the detection and quantification of DNA binding proteins” (Saint Louis University, published 2003).

Data set [1] addresses T1, Trp repressor (TrpR) (UniProt P0A881 P0A881:2-108). As to the kind of experiment: FRET; two-color assay, TrpR only, no change in coumarin signal; 15 C.
Data set [2] addresses T1, Trp repressor (TrpR). As to the kind of experiment: FRET; 400 nM TrpR, no change.
The target of data set [3] is T2, CAP (cAMP receptor protein) (Escherichia coli, UniProt P0ACJ8 P0ACJ8:2-210). Kind of data set: FRET; two-color assay, CAP only, no change in fluorescein signal; 200 uM cAMP. The note with it: chain copies: 2; label: dT-fluorescein (TRP2), dT-dabcyl (TRP4); two half-site duplexes with short complementary overhangs. Here is the method:
Nucleic acid constructs specific for each of the proteins to be detected may be labeled with probes that emit light at different wavelengths. In this example, the reaction mixture contained nucleic acid constructs labeled with 7-diethylaminocoumarin-3-carboxylic acid for detecting CAP protein (described in EXAMPLE 2) and nucleic acid constructs labeled with fluorescein for detecting TrpR protein (described in EXAMPLE 6). Specifically, 100 nM CAP5/CAP3, 120 nM CAP1/CAP4, 100 nM TRP2/TRP3, and 120 nM TRP1/TRP4 duplexes were present in the reaction mixture.
All measurements were performed at 15° C. in 10 mM potassium phosphate (pH 7.6), 50 mM NaCl, 0.1 mM EDTA, 4 mM tryptophan, 200 μM cAMP, 10% glycerol, 0.01% sodium azide and 1.0 mg/ml BSA. The fluorescence spectra with the excitation at 433 nm (excitation of 7-diethylaminocoumarin-3-carboxylic acid, FIG. 17A) and with the excitation at 490 nm (excitation of fluorescein, FIG. 17B) were recorded in the absence of the proteins (curves 1), in the presence of CAP only (curves 2), in the presence of TrpR only (curves 3), and in the presence of both CAP and TrpR (curves 4). In the presence of only CAP there was no change in the fluorescein signal (FIG. 17B, curve 2) whereas about 60% quenching of the 7-diethylaminocoumarin-3-carboxylic acid signal was observed (FIG. 17A, curve 2). […]

Data set [4] has as its target T2, CAP (cAMP receptor protein). As to the kind of experiment: competition; no effect up to 194.2 nM; 200 uM cAMP, 50 mM NaCl. The settings on record: chain copies: 2. From the text:
(§1) The fluorescence donor (fluorescein) and the fluorescence acceptor (dabcyl) were introduced into DNA fragments using commercially available dT-fluorescein and dT-dabcyl (Glen Research, Sterling, Va.), wherein dT stands fordeoxythymidine. The oligonucleotides were purified using reverse phase chromatography on a RPC column (Pharmacia) as previously described (Heyduk, E., and Heyduk, T. Anal. Biochem. 248, 216-227, 1997). The fractions containing the oligonucleotides were dried in a vacuum centrifuge concentrator and subsequently dissolved in 50 μl of water. The concentration of the stock solutions of oligonucleotides was determined by recording the UV-VIS absorption spectrum of a small aliquot of the stock solution diluted to 400 μl. The CAP1 oligonucleotide (SEQ ID NO:1) was hybridized with CAP4 oligonucleotide (SEQ ID NO:4) to generate the CAP1/CAP4 duplex and CAP2 oligonucleotide (SEQ ID NO:2) was hybridized with CAP3 oligonucleotide (SEQ ID NO:3) to generate the CAP2/CAP3 duplex. […] All subsequent fluorescence measurements were performed at 25° C. in 50-mM Tris/HCl (pH 8.0), 100 mM NaCl (or 50 mM NaCl where indicated), 1 mM EDTA, 0.1 mg/ml BSA, and 200 μM cAMP in 200 μl quartz cuvette using Aminco-Bowman Series 2 spectrofluorometer. The excitation wavelength was at 490 nm and the emission was recorded from 500 to 650 nm. […]

Data set [5] shares this target. As to the kind of experiment: ratiometric FRET; 0-150 nM CAP, 200 uM cAMP, 25 C. The settings on record: chain copies: 2; label: 7-diethylaminocoumarin-3-carboxylic acid on amino-dT (CAP6), dT-fluorescein (CAP2); two half-site duplexes with short complementary overhangs. Here is the method: In a second experiment (FIG. 9), the pair of CAP6/CAP1 and CAP2/CAP3 nucleic acid duplexes were tested for the performance in CAP assay. In this assay format, the 7-diethylaminocoumarin-3-carboxylic acid present in the CAP6/CAP1 duplex functioned as a fluorescence donor and the fluorescein present in the CAP2/CAP3 duplex functioned as an acceptor. In this case, both the donor as well as the acceptor are fluorescent. The experiment was performed at 25° C. in 50 mM Tris/HCl (pH 8.0), 100 mM NaCl, 1 mM EDTA, 0.1 mg/ml BSA, and 200 μM cAMP. […] The shoulder observed at about 520 nm is due to the residual emission of fluorescein, which is also to a small extent excited at 433 nm. Upon addition of varying amounts of CAP in a range from 0 to 150 nM (curves 2 -9), a pronounced quenching of the peak at 475 nm and a pronounced enhancement of the peak at 520 nm is observed. Recall that the emission maximum of fluorescein is 520 nm. […] Also, as shown in the inset of FIG. 9, the ratio between the fluorescence intensities at 520 nm and 475 nm may be used to determine the concentration of DNA binding proteins. This ratiometric mode of signal detection could be particularly useful since it would be less prone to trivial errors (such as pipetting errors, general quenching by some unrelated compounds present in the assayed sample).

Another data set concerns the target p53 (Homo sapiens, UniProt P04637 P04637:1-393). Kind of data set: FRET; 0-130 nM p53, quenching proportional to p53, 50 mM NaCl, 100 nM nonspecific 30-bp DNA, 25 C. The note with it: tags: full-length, expressed in bacteria (gift of K. S. Matthews); chain copies: 4; label: dT-fluorescein (P2), dT-dabcyl (P4); two half-site duplexes with short complementary overhangs. The method, then: The oligonucleotides were purified using reverse phase chromatography on a RPC column as described previously (Heyduk, E., and Heyduk, supra). The fractions containing the oligonucleotides were dried in Vacuum centrifuge concentrator and were dissolved in 50 μl of water. The concentrations of the stock solutions of oligonucleotides were determined by recording the UV-VIS absorption spectrum of a small aliquot of the stock solution diluted to 400 μl. The P1 oligonucleotide (SEQ ID NO:20) was hybridized with the P4 oligonudeotide (SEQ ID NO:23) to generate the P1/P4 duplex construct and the P2 oligonucleotide (SEQ ID NO:21) was hybridized with the P3 (SEQ ID NO:22) oligonucleotide to generate the P2/P3 duplex construct. For the hybridization, the appropriate oligonucleotides were mixed at 10 μM concentration in 100 μl of 50 mM Tris/HCl (pH 8.0), 100 mM NaCl, 1 mM EDTA, heated for 1 min at 95° C. and then cooled to 25° C. for 1 hr. All subsequent fluorescence measurements were performed at 25° C. in 50-mM potassium phosphate (pH 7.5), 50 mM NaCl, and 0.5 mg/ml BSA containing also 100 nM of a nonspecific 30-bp DNA duplex. The DNA duplexes obtained upon hybridization are illustrated in FIG. 18. The duplexes contain a repeat of 10 bp PuPuPuC(A/T)(T/A)GPyPyPy (SEQ ID NO:24) motif split between the two DNA duplexes. […]

For data set [6], the target named is T1, Trp repressor (TrpR). As to the kind of experiment: FRET; specificity control.
The next data set addresses Lac repressor (LacR) (UniProt P03023 P03023:1-360). Kind of data set: FRET; 0-200 nM LacR, saturation ~150 nM, 50 nM DNA, 25 C; specificity confirmed with 5 mM IPTG. The settings on record: chain copies: 4; label: dT-fluorescein (LAC2), dT-dabcyl (LAC4); two half-site duplexes with short complementary overhangs. Here is the method: The oligonucleotides were purified using reverse phase chromatography on RPC column (Amersham Pharmacia Biotech, Piscataway, N.J.) as previously described (Heyduk, E., and Heyduk, T. Anal. Biochem. 248, 216-227, 1997). The fractions containing the oligonucleotides were dried in Vacuum centrifuge concentrator and were dissolved in 50 μl of water. The concentration of the stock solutions of oligonucleotides was determined by recording the UV-VIS absorption spectrum of a small aliquot of the stock solution diluted to 400 μl. The LAC1 oligonucleotide (SEQ ID NO:12) was hybridized with the LAC4 oligonucleotide (SEQ ID NO:15) to generate the LAC1/LAC4 construct and the LAC2 oligonucleotide (SEQ ID NO:13) was hybridized with the LAC3 oligonucleotide (SEQ ID NO:14) to generate the LAC2/LAC3 construct. […] All subsequent fluorescence measurements were performed at 25° C. in 50 mM Tris/HCl (pH 8.0), 100 mM NaCl, 1 mM EDTA, and 0.1 mg/ml BSA. […]
The fluorescence spectra of 50 nM of LAC1/LAC4 plus LAC2/LAC3 were recorded in the absence of LacR (FIG. 14, curve 1) and in the presence of varying amounts of LacR in a range from 0-200 nM (FIG. 14, curves 2-7). Fluorescence signal quenching was proportional to the amount of LacR added to the reaction mixture, with saturation occurring at approximately 150 nM of LacR (FIG. 14, inset). […]

Data set [7] concerns the target T2, CAP (cAMP receptor protein). As to the kind of experiment: competition; unlabeled duplex blocks CAP detection; 200 uM cAMP, 50 mM NaCl. The settings on record: chain copies: 2.
From the text: as §1

T2 sequence (P0ACJ8 2-210, one chain of several): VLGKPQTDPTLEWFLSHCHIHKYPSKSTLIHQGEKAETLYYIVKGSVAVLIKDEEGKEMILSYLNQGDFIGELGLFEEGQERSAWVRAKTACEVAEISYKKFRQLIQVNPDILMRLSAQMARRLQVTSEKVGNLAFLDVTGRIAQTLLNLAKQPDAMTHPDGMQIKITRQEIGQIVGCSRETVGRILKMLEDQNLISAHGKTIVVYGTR
Lac repressor (LacR), sequence (P03023 whole entry, one chain of several): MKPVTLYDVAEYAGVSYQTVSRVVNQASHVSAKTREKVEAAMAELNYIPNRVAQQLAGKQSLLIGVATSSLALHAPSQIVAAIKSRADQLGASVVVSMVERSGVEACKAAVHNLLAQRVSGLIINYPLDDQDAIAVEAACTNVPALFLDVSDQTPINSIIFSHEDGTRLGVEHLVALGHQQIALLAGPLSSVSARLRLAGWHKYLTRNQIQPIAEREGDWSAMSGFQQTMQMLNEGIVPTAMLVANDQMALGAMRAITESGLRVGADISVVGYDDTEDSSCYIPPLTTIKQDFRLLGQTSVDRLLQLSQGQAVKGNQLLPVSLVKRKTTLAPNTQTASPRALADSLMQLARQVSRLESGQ
p53, sequence (P04637 whole entry, one chain of several): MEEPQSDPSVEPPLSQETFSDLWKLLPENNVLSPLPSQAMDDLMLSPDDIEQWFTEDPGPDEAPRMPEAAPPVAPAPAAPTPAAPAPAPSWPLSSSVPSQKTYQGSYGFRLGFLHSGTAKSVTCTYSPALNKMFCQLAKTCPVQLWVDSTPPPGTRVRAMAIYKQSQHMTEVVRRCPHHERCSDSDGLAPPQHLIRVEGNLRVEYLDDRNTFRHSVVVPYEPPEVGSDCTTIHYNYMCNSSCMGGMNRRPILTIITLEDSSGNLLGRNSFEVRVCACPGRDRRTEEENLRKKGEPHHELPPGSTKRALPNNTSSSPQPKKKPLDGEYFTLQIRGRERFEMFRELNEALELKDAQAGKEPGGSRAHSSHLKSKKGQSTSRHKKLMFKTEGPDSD

B1: CAP5/CAP3 + CAP4/CAP1 (dsDNA)
DNA 1: AGTAGATCACATTTTAGGCACC
DNA 2: GGTGCCTAAAATGTGA
DNA 3: TCTACTTCACATTTATTGCGTT
DNA 4: AACGCAATAAATGTGA
modifications: [strand 1: T3 (N, modified T); strand 3: T3 (N, modified T)]
Consider B1, for which the binding result with Trp repressor (TrpR) [1] was “no binding”.

B2: CAP1/CAP4 + CAP2/CAP3 (dsDNA)
DNA 1: AACGCAATAAATGTGA
DNA 2: TCTACTTCACATTTATTGCGTT
DNA 3: AGTAGATCACATTTTAGGCACC
DNA 4: GGTGCCTAAAATGTGA
modifications: [strand 2: T3 (N, modified T); strand 3: T3 (N, modified T)]
For B2, the binding result with Trp repressor (TrpR) [2] was “no binding”.

B3: TRP1/TRP4 + TRP2/TRP3 (dsDNA)
DNA 1: GAGATCTATCGAACTA
DNA 2: GTTTACTAGTTCGATAGATCTC
DNA 3: GTAAACTAGTACGAAACTAGAG
DNA 4: CTCTAGTTTCGTACTA
modifications: [strand 2: T2 (N, modified T); strand 3: T2 (N, modified T)]
With B3, the binding result in data set [3] is “no binding”.

B4: NSP1 duplex (dsDNA)
DNA 1: GCATCGGTCACTGCAGTCTCGACAGCTACG
DNA 2: CGTAGCTGTCGAGACTGCAGTGACCGATGC
On to B4, for which the binding result in data set [4] is “no binding”.

B5: CAP6/CAP1 + CAP2/CAP3 (dsDNA)
DNA 1: TCTACTTCACATTTATTGCGTT
DNA 2: AACGCAATAAATGTGA
DNA 3: AGTAGATCACATTTTAGGCACC
DNA 4: GGTGCCTAAAATGTGA
modifications: [strand 1: T3 (N, modified T); strand 3: T3 (N, modified T)]
On to B5, for which, in data set [5], the binding result was “binds”.

B6: P1/P4 + P2/P3 (dsDNA)
DNA 1: GCATCGGTCACAGACA
DNA 2: TGTCTAGGCATGTCTGTGACCGATGC
DNA 3: TGCCTAGACATGCCTTGCAGTCTCGA
DNA 4: TCGAGACTGCAAGGCA
modifications: [strand 2: T5 (N, modified T); strand 3: T5 (N, modified T)]
For B6, the binding result with p53 was “binds”.

B7: LAC1/LAC4 + LAC2/LAC3 (dsDNA)
DNA 1: GGTGTGTGGAATTGTGA
DNA 2: ATACGCTCACAATTCCACACACC
DNA 3: GCGTATAACAATTTCACACAGG
DNA 4: CTTGTGTGAAATTGTT
modifications: [strand 2: T2 (N, modified T); strand 3: T4 (N, modified T)]
Turning to B7, the values for the binding result in the data set with Trp repressor (TrpR) [6] and with Lac repressor (LacR) were “no binding” and “binds”, respectively.

B8: SP1 duplex (dsDNA)
DNA 1: CCTAAAATGTGATCTAGATCACATTTATTG
DNA 2: CAATAAATGTGATCTAGATCACATTTTAGG
B8: the binding result in [7] was “binds”.
